# Measured values: patent US20140274782A1, “AFFINITY REAGENTS AND METHODS FOR DETECTION, PURIFICATION, AND PROTEOMIC ANALYSIS OF METHYLATED PROTEINS” (The Board of Trustees of the Leland Stanford Junior …, priority 2013, published 2014)
# T1: G9a and GLP (Homo sapiens, UniProt Q96KQ7+Q9H9B1)
# T1 sequence (Q96KQ7 2-1210 limits assumed): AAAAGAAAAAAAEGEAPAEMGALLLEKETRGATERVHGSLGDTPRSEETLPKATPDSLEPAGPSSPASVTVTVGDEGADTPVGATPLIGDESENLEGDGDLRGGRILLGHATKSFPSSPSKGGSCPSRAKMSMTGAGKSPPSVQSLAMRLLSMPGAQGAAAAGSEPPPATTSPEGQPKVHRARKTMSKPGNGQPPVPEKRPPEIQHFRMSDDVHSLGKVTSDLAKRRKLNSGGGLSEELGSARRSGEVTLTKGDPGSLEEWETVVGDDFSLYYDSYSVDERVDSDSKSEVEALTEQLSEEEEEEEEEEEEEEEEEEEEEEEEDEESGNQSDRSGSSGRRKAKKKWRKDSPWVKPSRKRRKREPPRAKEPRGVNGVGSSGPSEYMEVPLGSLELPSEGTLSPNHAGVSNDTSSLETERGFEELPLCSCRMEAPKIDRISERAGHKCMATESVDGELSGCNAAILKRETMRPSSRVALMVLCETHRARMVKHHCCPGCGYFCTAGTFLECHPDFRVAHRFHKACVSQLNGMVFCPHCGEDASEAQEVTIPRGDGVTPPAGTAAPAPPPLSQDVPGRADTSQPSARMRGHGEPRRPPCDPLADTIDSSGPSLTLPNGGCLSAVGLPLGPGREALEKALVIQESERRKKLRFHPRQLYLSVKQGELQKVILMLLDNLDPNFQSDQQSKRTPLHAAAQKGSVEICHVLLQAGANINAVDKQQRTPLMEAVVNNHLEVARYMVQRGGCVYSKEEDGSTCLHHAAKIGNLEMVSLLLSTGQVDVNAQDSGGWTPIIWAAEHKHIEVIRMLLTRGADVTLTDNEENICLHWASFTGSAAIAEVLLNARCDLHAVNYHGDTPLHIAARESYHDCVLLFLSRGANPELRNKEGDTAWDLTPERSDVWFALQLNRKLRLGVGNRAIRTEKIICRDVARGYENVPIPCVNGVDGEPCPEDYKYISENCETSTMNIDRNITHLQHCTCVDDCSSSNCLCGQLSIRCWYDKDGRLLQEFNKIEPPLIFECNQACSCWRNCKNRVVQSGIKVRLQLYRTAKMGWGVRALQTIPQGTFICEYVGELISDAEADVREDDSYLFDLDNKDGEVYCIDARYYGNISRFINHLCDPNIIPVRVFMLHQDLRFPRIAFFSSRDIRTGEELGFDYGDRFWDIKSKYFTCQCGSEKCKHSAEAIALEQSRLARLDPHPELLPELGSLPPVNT
# T1 sequence (Q9H9B1 2-1298 limits assumed): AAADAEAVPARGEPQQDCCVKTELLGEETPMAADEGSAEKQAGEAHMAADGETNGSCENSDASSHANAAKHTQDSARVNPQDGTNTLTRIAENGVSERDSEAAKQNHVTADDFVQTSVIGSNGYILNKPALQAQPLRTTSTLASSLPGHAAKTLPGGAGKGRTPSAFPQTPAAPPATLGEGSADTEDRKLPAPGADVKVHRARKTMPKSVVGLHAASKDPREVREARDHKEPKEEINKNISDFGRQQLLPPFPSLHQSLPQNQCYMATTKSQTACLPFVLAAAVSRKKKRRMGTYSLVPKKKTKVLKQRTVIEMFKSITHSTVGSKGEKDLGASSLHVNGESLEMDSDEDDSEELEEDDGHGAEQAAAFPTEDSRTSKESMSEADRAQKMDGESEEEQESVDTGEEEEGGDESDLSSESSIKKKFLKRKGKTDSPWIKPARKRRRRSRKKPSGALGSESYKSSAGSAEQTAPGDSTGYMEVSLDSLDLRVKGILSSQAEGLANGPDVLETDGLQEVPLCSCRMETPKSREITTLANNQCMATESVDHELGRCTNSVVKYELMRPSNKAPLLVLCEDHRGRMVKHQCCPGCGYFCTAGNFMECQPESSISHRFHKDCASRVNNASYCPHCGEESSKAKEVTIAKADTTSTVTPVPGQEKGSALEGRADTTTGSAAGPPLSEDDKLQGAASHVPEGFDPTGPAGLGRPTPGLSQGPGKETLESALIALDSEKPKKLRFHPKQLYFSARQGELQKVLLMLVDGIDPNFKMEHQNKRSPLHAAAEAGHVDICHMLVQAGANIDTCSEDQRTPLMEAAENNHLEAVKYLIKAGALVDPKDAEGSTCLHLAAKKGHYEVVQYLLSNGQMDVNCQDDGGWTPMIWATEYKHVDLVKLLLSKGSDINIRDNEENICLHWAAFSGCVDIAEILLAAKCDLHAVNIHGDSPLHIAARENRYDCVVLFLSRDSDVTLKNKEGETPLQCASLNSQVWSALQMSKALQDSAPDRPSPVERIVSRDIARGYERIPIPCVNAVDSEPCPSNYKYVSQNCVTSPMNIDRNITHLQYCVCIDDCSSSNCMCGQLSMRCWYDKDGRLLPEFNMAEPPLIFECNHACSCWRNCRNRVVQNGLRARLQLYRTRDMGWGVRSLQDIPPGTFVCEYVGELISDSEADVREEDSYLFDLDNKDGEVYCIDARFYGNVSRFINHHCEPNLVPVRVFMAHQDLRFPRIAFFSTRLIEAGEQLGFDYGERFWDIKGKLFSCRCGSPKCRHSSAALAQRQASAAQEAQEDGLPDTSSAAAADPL
# Key:
# [1] = system: 3×MBT domain of L3MBTL1; assay: Triple SILAC pull-down, 3xMBT/3xMBTD355N ratio (cytoplasmic, nuclear and chromatin fractions of 293T cells); format: binding, human; settings: for 3xMBT/D355N UNC Heavy: experiment with UNC0638 in heavy SILAC media; for 3xMBT/D355N UNC Light: experiment with UNC0638 in light SILAC media;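 as to all read-outs here: proteins quantified with MaxQuant, requiring at least two unique peptides and quantification in both label directions, normalized to the mean of proteins from a digested loading control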
# [2] = biological target: T1, G9a and GLP; assay: Triple SILAC pull-down after UNC0638 treatment of 293T cells, DMSO/UNC0638 ratio of protein captured by 3×MBT; format: cell-based; set-up: cells were treated for 24 hours with UNC0638 at 2.5 μM or DMSO vehicle control; endogenous in cells; host or cells: HEK 293T; settings: for Relative to UNC0638 UNC Heavy: UNC0638 in heavy SILAC media; for Relative to UNC0638 UNC Light: UNC0638 in light SILAC media; for Relative to UNC0638 Average: average of UNC Light and UNC Heavy experiments;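 as to all read-outs here: mass spectrometry (Q-Exactive) SILAC quantitation, DMSO/UNC0638 ratio computed after subtracting 3×MBTD355N mutant pull-down background, only proteins with at least twofold 3×MBT over mutant signal considered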
# [3] = SILAC ratio, pull-down 3xMBT vs 3xMBTD355N
# [4] = SILAC ratio DMSO/UNC0638 of protein pulled down with 3xMBT
# [5] = SILAC ratio 3xMBT vs 3xMBTD355N pull-down, 293T cells, all values in log base 2
# [6] = SILAC ratio DMSO relative to UNC0638, pull-down with 3xMBT, all values in log base 2
"Relative to UNC0638 UNC Heavy [2, 4] [log base 2]","Relative to UNC0638 UNC Light [2, 4] [log base 2]",Relative to UNC0638 Average [2] [log base 2],Candidate G9a/GLP target ([2]; reduced association with 3xMBT after UNC0638 treatment),"Relative to UNC0638 UNC Heavy [2, 6] [log base 2]","Relative to UNC0638 UNC Light [2, 6] [log base 2]",Relative to UNC0638 Average ([2]; all values in log base 2) [log base 2],Molecule,"3xMBT/D355N UNC Heavy [1, 3] [log base 2]","3xMBT/D355N UNC Light [1, 3] [log base 2]","3xMBT/D355N UNC Heavy [1, 5] [log base 2]","3xMBT/D355N UNC Light [1, 5] [log base 2]"
0.55,0.36,0.46,✓,,,,"CYFIP1 (protein, UniProt Q7L576 1-1253, looked up) Cytoplasmic FMR1-interacting …: MAAQVTLEDALSNVDLLEELPLPDQQPCIEPPPSSLLYQPNFNTNFEDRNAFVTGIARYIEQATVHSSMNEMLEEGQEYAVMLYTWRSCSRAIPQVKCNEQPNRVEIYEKTVEVLEPEVTKLMNFMYFQRNAIERFCGEVRRLCHAERRKDFVSEAYLITLGKFINMFAVLDELKNMKCSVKNDHSAYKRAAQFLRKMADPQSIQESQNLSMFLANHNKITQSLQQQLEVISGYEELLADIVNLCVDYYENRMYLTPSEKHMLLKVMGFGLYLMDGSVSNIYKLDAKKRINLSKIDKYFKQLQVVPLFGDMQIELARYIKTSAHYEENKSRWTCTSSGSSPQYNICEQMIQIREDHMRFISELARYSNSEVVTGSGRQEAQKTDAEYRKLFDLALQGLQLLSQWSAHVMEVYSWKLVHPTDKYSNKDCPDSAEEYERATRYNYTSEEKFALVEVIAMIKGLQVLMGRMESVFNHAIRHTVYAALQDFSQVTLREPLRQAIKKKKNVIQSVLQAIRKTVCDWETGHEPFNDPALRGEKDPKSGFDIKVPRRAVGPSSTQLYMVRTMLESLIADKSGSKKTLRSSLEGPTILDIEKFHRESFFYTHLINFSETLQQCCDLSQLWFREFFLELTMGRRIQFPIEMSMPWILTDHILETKEASMMEYVLYSLDLYNDSAHYALTRFNKQFLYDEIEAEVNLCFDQFVYKLADQIFAYYKVMAGSLLLDKRLRSECKNQGATIHLPPSNRYETLLKQRHVQLLGRSIDLNRLITQRVSAAMYKSLELAIGRFESEDLTSIVELDGLLEINRMTHKLLSRYLTLDGFDAMFREANHNVSAPYGRITLHVFWELNYDFLPNYCYNGSTNRFVRTVLPFSQEFQRDKQPNAQPQYLHGSKALNLAYSSIYGSYRNFVGPPHFQVICRLLGYQGIAVVMEELLKVVKSLLQGTILQYVKTLMEVMPKICRLPRHEYGSPGILEFFHHQLKDIVEYAELKTVCFQNLREVGNAILFCLLIEQSLSLEEVCDLLHAAPFQNILPRVHVKEGERLDAKMKRLESKYAPLHLVPLIERLGTPQQIAIAREGDLLTKERLCCGLSMFEVILTRIRSFLDDPIWRGPLPSNGVMHVDECVEFHRLWSAMQFVYCIPVGTHEFTVEQCFGDGLHWAGCMIIVLLGQQRRFAVLDFCYHLLKVQKHDGKDEIIKNVPLKKMVERIRKFQILNDEIITILDKYLKSGDGEGTPVEHVRCFQPPIHQSLASS",1.93,1.58,,
,,,,−0.09,−0.02,−0.06,"ZRANB2 (protein, UniProt O95218 1-330, looked up) Zinc finger Ran-binding …: MSTKNFRVSDGDWICPDKKCGNVNFARRTSCNRCGREKTTEAKMMKAGGTEIGKTLAEKSRGLFSANDWQCKTCSNVNWARRSECNMCNTPKYAKLEERTGYGGGFNERENVEYIEREESDGEYDEFGRKKKKYRGKAVGPASILKEVEDKESEGEEEDEDEDLSKYKLDEDEDEDDADLSKYNLDASEEEDSNKKKSNRRSRSKSRSSHSRSSSRSSSPSSSRSRSRSRSRSSSSSQSRSRSSSRERSRSRGSKSRSSSRSHRGSSSPRKRSYSSSSSSPERNRKRSRSRSSSSGDRKKRRTRSRSPERRHRSSSGSSHSGSRSSSKKK",,,0.71,2.59
,,,,−0.78,0.47,−0.15,"CSTF3 (protein, UniProt Q12996 2-717, looked up) Cleavage stimulation factor …: SGDGATEQAAEYVPEKVKKAEKKLEENPYDLDAWSILIREAQNQPIDKARKTYERLVAQFPSSGRFWKLYIEAEIKAKNYDKVEKLFQRCLMKVLHIDLWKCYLSYVRETKGKLPSYKEKMAQAYDFALDKIGMEIMSYQIWVDYINFLKGVEAVGSYAENQRITAVRRVYQRGCVNPMINIEQLWRDYNKYEEGINIHLAKKMIEDRSRDYMNARRVAKEYETVMKGLDRNAPSVPPQNTPQEAQQVDMWKKYIQWEKSNPLRTEDQTLITKRVMFAYEQCLLVLGHHPDIWYEAAQYLEQSSKLLAEKGDMNNAKLFSDEAANIYERAISTLLKKNMLLYFAYADYEESRMKYEKVHSIYNRLLAIEDIDPTLVYIQYMKFARRAEGIKSGRMIFKKAREDTRTRHHVYVTAALMEYYCSKDKSVAFKIFELGLKKYGDIPEYVLAYIDYLSHLNEDNNTRVLFERVLTSGSLPPEKSGEIWARFLAFESNIGDLASILKVEKRRFTAFKEEYEGKETALLVDRYKFMDLYPCSASELKALGYKDVSRAKLAAIIPDPVVAPSIVPVLKDEVDRKPEYPKPDTQQMIPFQPRHLAPPGLHPVPGGVFPVPPAAVVLMKLLPPPICFQGPFVQVDELMEIFRRCKIPNTVEEAVRIITGGAPELAVEGNGPVESNAVLTKAVKRPNEDSDEDEEKGAVVPPVHDIYRARQQKRIR",,,1.58,1.48
